This data set can be described thus: yeast display, Sf9 membrane polyspecificity reagent, FACS + sequencing; frameworks hold sequencing errors. The gist of the method: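 Nanobodies from a synthetic yeast display library (Saccharomyces cerevisiae BJ5465), induced 36–48 hours with galactose, were stained 1 hour at 4 °C with 10% biotinylated, detergent-solubilized Sf9 membrane reagent, enriched on streptavidin microbeads, then FACS-sorted. Anti-HA (expression) and streptavidin (reagent binding) fluorescence set low and high (top ~1%) gates. Polyreactivity labels come from the gate of origin. Genes were colony-PCR amplified, MiSeq 2 × 250 sequenced and filtered by CDR length.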
With “QVQLVESGGGLVQAGGSLRLSCAASGIIFRRYAMGWYRQAPGKERELVAVISSGGSTNYADSVKGRFTISRDNAKNTVYLQMYSLKPEDTADYYCAAPSQSRGYYYWGQGTQVTVSS”, the “polyreactivity (PSR sort gate)” value is given as “high polyreactivity”.

For the sequence “QVQLVESGGGLVQAGGSLRLSCAASGIIFRTYAMGCYRQAPGKERELVAAITGSGGITYYADSVKGRFTISRDNAKNTVYLQMNSLKPEDTAVYYCAARGTRDGVQRYGYWGQGTQVTVSS”, the “polyreactivity (PSR sort gate)” value is reported as “high polyreactivity”.

Take “QVQLVESGGGLVQAGGSLRLSCAASGIIFRTYAMGWYRQAPGKERELVAAITGRGSNTYYADSVKGRFTISRDNAKNTVYLQMNSLKPEETAVYYCNARYYDYRVALRYDYWGQGTQVTVSS”: the “polyreactivity (PSR sort gate)” value was “high polyreactivity”.

For “QVQLVESGGGLVQAGGSLRLSCAASGIIFRVYTMGWYRQAPGKERELVAGLSSGDSTSYADSVKGRFTISRDNAKNTVYLQMNSLKPEDTAVYYCNAVAYYSYSANFRNAYDYWGQGTQVTVSS”, the “polyreactivity (PSR sort gate)” value is “low polyreactivity”.

For “QVQLVESGGGLVQAGGSLRLSCAASGIIFRYNAMGWSRQAPGKERELVATISKRGGSTRYADSVKGRFTISRDNAKNTVYLQMNSLKPEDTAVYYCAAQRPYYNGYDYWGQGTQVTVSS”, the “polyreactivity (PSR sort gate)” value is “high polyreactivity”.

For “QVQLVESGGGLVQAGGSLRLSCAASGIIFRYNTMGWYRQAPGKERELVAAISKRGGSTYYADSVKGRFTISRDNAKNTVYLQMNSLKPEDTAVYYCAARYYSASYYNYGYWGQGTQVTVSS”, the “polyreactivity (PSR sort gate)” value is reported as “high polyreactivity”.

With “QVQLVESGGGLVQAGGSLRLSCAASGIIFRYYAMGLYRQAPGKERELVAAISQGGGSTYYADSVKGRFTISRDNAKYTVYLPMKTLKPEDTAVYYCNTGRRHGLTQGGDYWGQGTQVTVSS”, the “polyreactivity (PSR sort gate)” value was “high polyreactivity”.

In the case of “QVQLVESGGGLVQAGGSLRLSCAASGIIFRYYAMGWYRQAPGKEREFVAAISSSGVRTYYADSVKGRFTISRDNAKNTVYLQMNSLKPEDTAVYYCAAASRANSYRYNYWGQGTQVTVSS”, the “polyreactivity (PSR sort gate)” value is recorded as “high polyreactivity”.

For “QVQLVESGGGLVQAGGSLRLSCAASGIIFRYYAMGWYRQAPGKEREFVAAITWRGTSTYYADSVKGRFTISRDNAKNTVYLQMNSLKPEDTAVYYCATATAFPYYGLDYWGQGNQVTVSS”, the “polyreactivity (PSR sort gate)” value was “high polyreactivity”.

As for “QVQLVESGGGLVQAGGSLRLSCAASGIIFRYYAMGWYRQAPGKERELVAAISRGGSTYYADSVKGRFTISRDNAKNTVYLQMNSLKPEDTAVYYCAATSYRRTGYNYWGQGTQVTVSS”, the “polyreactivity (PSR sort gate)” value was “high polyreactivity”.

As to “QVQLVESGGGLVQAGGSLRLSCAASGIIFRYYAMGWYRQAPGKERELVAGISYRGGSTYYADSVKGRFTISRDNAKNTVYLQMNSLKPEDTAVYYCAAVVYPRNYWGQGTQVTVSS”, the “polyreactivity (PSR sort gate)” value is “high polyreactivity”.

Regarding “QVQLVESGGGLVQAGGSLRLSCAASGIIFRYYAMGWYRQAPGKERELVASITARSGSTYYADSVKGRFTISRDNAKNTVYLQMNSLKPEDTAVYYCAKSGKPARYYYWGQGTQVTVSS”, the “polyreactivity (PSR sort gate)” value was “high polyreactivity”.

Take “QVQLVESGGGLVQAGGSLRLSCAASGIIFRYYAMGWYRQAPGKERELVATITIGGRTNYADSVKGRFTISRDNAKNTVYLQMNCLKPEDTAVYYCASRVYKYGSVYHRYDYWGQGTQVTVSS”: the “polyreactivity (PSR sort gate)” value is given as “high polyreactivity”.

Regarding “QVQLVESGGGLVQAGGSLRLSCAASGIIFRYYVMGWYRQAPGKERELVAAISWSGGSTYYADSVKGRFTISRDNAKNTVYLQMNSLKPEDTAVYYCAASRGILASEFGYWGQGTQVTVSS”, the “polyreactivity (PSR sort gate)” value is given as “high polyreactivity”.

With “QVQLVESGGGLVQAGGSLRLSCAASGIIFSGYAMGWYRQAPGKERELVAAISSRGGGTYYADSVKGRFTISRDNAKNTVYLQMNSLKPEDTAVYYCNRVAFTYNYWGQGTQVTVSS”, the “polyreactivity (PSR sort gate)” value is recorded as “high polyreactivity”.

Take “QVQLVESGGGLVQAGGSLRLSCAASGIIFSGYAMGWYRQAPGKERELVAAITWGGGSTYYADSVKGRFTISRDNAKNTVYLQMNSLKPEDTAVYYCAATWWYEHVRYYSWGQGTQVTVSS”: the “polyreactivity (PSR sort gate)” value is “high polyreactivity”.

In the case of “QVQLVESGGGLVQAGGSLRLSCAASGIIFSIYVMGWYRQAPGKERELVAAISRSGGSTYYADSVKGRFTISRDNAKNTVYLQMNSLKPEDTAVYYCAKKPTSTYQPDSPRWSDYWGQGTQVTVSS”, the “polyreactivity (PSR sort gate)” value was “high polyreactivity”.

On to “QVQLVESGGGLVQAGGSLRLSCAASGIIFSKYAMGWYRQAPGKERELVAAISWNGVSTYYADSVKGRFTISRDNAKNTVYLQMNSLKPEDTAVYYCAADTYRSRRISYYWGQGTQVTVSS”, for which the “polyreactivity (PSR sort gate)” value is listed as “low polyreactivity”.

Consider “QVQLVESGGGLVQAGGSLRLSCAASGIIFSSYAMGWYRQAPGKERELVAAISRRSGSTYYADSVKGRFTISRDNAKNTVYLQMNSLKPEDTAVYYCNKLPGTPRSLATGDYWGQGTQVTVSS”, for which the “polyreactivity (PSR sort gate)” value is “high polyreactivity”.

Consider “QVQLVESGGGLVQAGGSLRLSCAASGIIFSSYAMGWYRQAPGKERELVAAISTSGGRTYYADSVKGRFTISRDNAKNTVYLQMNSLKPKDTAVYYCAARYGYWGQGTQVTVSS”, for which the “polyreactivity (PSR sort gate)” value was “high polyreactivity”.

As to “QVQLVESGGGLVQAGGSLRLSCAASGIIFSTYAMGWYRQAPGKERELVAAISYGGGSTYYADSVKGRFTISRDNEKNTVYLQMNSLKPEDTAVYYCAADSYRAYYYWGQGTQVTVSS”, the “polyreactivity (PSR sort gate)” value is “high polyreactivity”.

“QVQLVESGGGLVQAGGSLRLSCAASGIIFSWYAMGWYRQAPGKERELVATISSGAHTYYADSVKGRFTISRDNAKNTVYLQMNSLKPEDTAVYYCATTSYGYWFGYIPEVDYWGQGTQVTVSS”: the “polyreactivity (PSR sort gate)” value is “low polyreactivity”.

As for “QVQLVESGGGLVQAGGSLRLSCAASGIIFSYYAMGCYRQAPGKERELVAAISWSGGSTYYADSVKGRFTISRDNAKNTVYLQMNSLKPEDTAVYYCAADDYLAYVYWGQGTQVTVSS”, the “polyreactivity (PSR sort gate)” value was “high polyreactivity”.

On to “QVQLVESGGGLVQAGGSLRLSCAASGIIFSYYAMGWYRQAPGKERELVAAISRSGARTSYADSVKGRFTISRDNAKNTVYLQMNSLKPEDTAVYYCAARTQGTRYRGEYWGQGTQVTVSS”, for which the “polyreactivity (PSR sort gate)” value is “high polyreactivity”.

With “QVQLVESGGGLVQAGGSLRLSCAASGIIFSYYAMGWYRQAPGKERELVAAITYSGGSTYYADSVKGRFTISRDNAKNTVYLQMNSLKPEDTAVYYCDAEDYYYYSWYEYSYYYWGQGTQVTVSS”, the “polyreactivity (PSR sort gate)” value is listed as “high polyreactivity”.

Turning to “QVQLVESGGGLVQAGGSLRLSCAASGIIFTGNAMGWYRQAPGKERELVAGITGSGGNTYYADSVKGRFTISRDNAKNTVYLQMNSLKPEDTAVYYCAARRHIFLLIIWSGRVDYWGQGTQVTVSS”, the “polyreactivity (PSR sort gate)” value is reported as “low polyreactivity”.

With “QVQLVESGGGLVQAGGSLRLSCAASGIIFTQNGMGWYRQAPGKERELVAAISWSAGGTYYADSVKGRFTISRYNAKNTVLLQMNSLKPEDTAVYYCNARVFNVFREFNSWGQGTQVTVSS”, the “polyreactivity (PSR sort gate)” value was “low polyreactivity”.

As for “QVQLVESGGGLVQAGGSLRLSCAASGIIFTRYVMGWYRQAPRKERELVAAISWSGGRTYYADSVKGRFTISRDNAKNTVYLQMNSLKPEDTAVYYCAAGIYQHAGGDYWGQGTQVTVSS”, the “polyreactivity (PSR sort gate)” value is listed as “high polyreactivity”.

Turning to “QVQLVESGGGLVQAGGSLRLSCAASGIIFTVYDMGWYRQPPGKERELVAAITWSGGSTYYADSVKGRFTISRDNAKNTVYLQMNSLKPEDTAVYYCIKVGRVWDVETDGDYDYWGQGTQVTVSS”, the “polyreactivity (PSR sort gate)” value is given as “low polyreactivity”.

For “QVQLVESGGGLVQAGGSLRLSCAASGIIFTYYDMGWYRQAPGKERELVAGIDYSGTSTYYADSVKGRFTISRDNAKNTVYLQMNSLKPEDTAVYYCAAVPVWGGYFAGEYYYWGQGTQVTVSS”, the “polyreactivity (PSR sort gate)” value was “high polyreactivity”.

“QVQLVESGGGLVQAGGSLRLSCAASGIIFVKYARGWSRQAPGKERELVAAITSGGSTYYADSVKGRFTISRDNAKNTVYLQTNSLKPEDTAVYYCNARRNQYLAQYDYWGQGTQVTVSS”: the “polyreactivity (PSR sort gate)” value is reported as “high polyreactivity”.

On to “QVQLVESGGGLVQAGGSLRLSCAASGIIFVRYTMGWYRQAPGKERELVAAISSSGGSTYYADSVKGRFTISRDNAKNTVYLQLNSLKPEDTAVYYCIAEIRDNNVGYDTDYDYWGQGSQVTVSS”, for which the “polyreactivity (PSR sort gate)” value is listed as “high polyreactivity”.

For “QVQLVESGGGLVQAGGSLRLSCAASGIIFWHYAMGMYRQAPGKERELVADISRRGGSTYYADSVKGRFTISRDNAKNTVYLQINSLKPEDNAVYYCAARYHPGGYDSWGQGTQVTVSS”, the “polyreactivity (PSR sort gate)” value is recorded as “low polyreactivity”.

Regarding “QVQLVESGGGLVQAGGSLRLSCAASGIIFWLYTMGWYRQAPGKERELVAAITSGGSTYYAESVKGRFTISRDNAKNTVYLQMNSLKPEDTAVYYCAAVSRAPGLRYDYWGQGTQVTVSS”, the “polyreactivity (PSR sort gate)” value is given as “high polyreactivity”.

With “QVQLVESGGGLVQAGGSLRLSCAASGIIFWRYAMGWYRQAPGKERELVASISSSGGRTYYADSVKGRFTISRDNAKNTVYLQMNSLKPEDTAVYYCAARGPYGYDLLYYWGQGTQVTVSS”, the “polyreactivity (PSR sort gate)” value is listed as “high polyreactivity”.

Regarding “QVQLVESGGGLVQAGGSLRLSCAASGIIFWYYAMGWYIQAPGKERELVAAFSSGGSTTYADSVKGRFTISRDNAKNTVYLQINSLKPEDTAVYYCAASVRGIRYDYWGQGTQVTVSS”, the “polyreactivity (PSR sort gate)” value was “low polyreactivity”.

Consider “QVQLVESGGGLVQAGGSLRLSCAASGIIFWYYAMGWYRQAPGKERELVAAISRGGTTYYADSVKGRFTISRDNAKNTVYLQMNSLKPEDTAVYYCAAGVRYRLTRYFYPDFDYWGQGTQVTVSS”, for which the “polyreactivity (PSR sort gate)” value is recorded as “high polyreactivity”.

As to “QVQLVESGGGLVQAGGSLRLSCAASGIIFYAYAMGWYRQAPGKETELVAAITFSAVSTNYADSVKGRFTISRDYAKNTVYLQMNSLKPEDTAVYYCAAEAYKHGVWDYDYWGQGTQVTVSS”, the “polyreactivity (PSR sort gate)” value was “low polyreactivity”.

Turning to “QVQLVESGGGLVQAGGSLRLSCAASGIIFYAYVMGWYRQAPGKERELVAAITVSGGSTYYADSVKGRFTISRDNAKNTVYLQMNSLKPEDTAVYYCAADWNFYQRTFDSWGQGTQVTVSS”, the “polyreactivity (PSR sort gate)” value is reported as “low polyreactivity”.

In the case of “QVQLVESGGGLVQAGGSLRLSCAASGIIFYDYAMGWYRQAPGKERELVAAISKRGGSTYYADSVKGRFTISRDNAKNTVYLQMNSLKPEDTAVYYCAAKYYRYGDPDRYDYWGQGTQVTVSS”, the “polyreactivity (PSR sort gate)” value is “high polyreactivity”.

Turning to “QVQLVESGGGLVQAGGSLRLSCAASGIIFYDYAMGWYRQAPGKERELVATITRGGGTKYADSVKGRFTISRDNAKNTVYLQMNSLKQEDTAVYYCAADSHGDYEGDYWGQGTQVTVSS”, the “polyreactivity (PSR sort gate)” value is “low polyreactivity”.

The values are drawn from the nanobody polyreactivity screen of Harvey et al. (2022).
